Data reported in patent US20110179509A1, “Use of Afamin for Treating Fertility Disorders” (VITATEQ BIOTECHNOLOGY GMBH, priority 2008, published 2011).
Entries after “also recorded” stand apart in the source; their conditions may differ.

B1: recombinantly produced murine afamin: murine afamin expressed by stable transfection of CHO cells with mouse afamin cDNA, purified from serum-free culture supernatants (protein, UniProt O89020 22-608, looked up)
Afamin: LPTKPQDVDHFNATQKFIDENTTYLAIIAFSQYVQEASFDEVETLVKVMLDYRDRCWADNTLPECSKTANDAIQDMLCDMEGLPQKHNFSHCCGKAGFPRRLCFFYNKKANVGFLPPFPTLDPEEKCQAYKNNSESFLHLYMYEVARRNPFVFAPVLLAVAAWFEEAATTCCEQQQKATCFQAKAAPITQYLKASSSYQRNVCGALIKFGPKVLNSINVAVFSKKFPKIGFKDLTTLLEDVSSMYEGCCEGDVVHCIRSQSQVVNHICSKQDSISSKIKVCCEKKTLEREACIINANKDDRPEGLSLREAKFTESENVCQERDSDPDKFFAEFIYEYSRRHPDLSTPELLRITKVYMDFLEDCCSRENPAGCYRHVEDKFNETTQRSLAMVQQECKQFQELGKDTLQRHFLVKFTKAAPQLPMEELVSLSKEMVAALTTCCTLSDEFACVDNLADLVLGELCGVNTNRTINPAVDHCCKTDFAFRRHCFEHLKADTTYELPSVSALVSALHTDWCQPRKEDLQNKKHRFLVNLVKWMPGITDEEWLCLFTKFTAAREECSEVQEPESCFSPESSKTGDESQATEKQR
B2: afamin: 75-kDa human serum glycoprotein with vitamin E-binding properties, member of the albumin gene family (protein, UniProt P43652 22-599, looked up)
Afamin: LPTQPRDIENFNSTQKFIEDNIEYITIIAFAQYVQEATFEEMEKLVKDMVEYKDRCMADKTLPECSKLPNNVLQEKICAMEGLPQKHNFSHCCSKVDAQRRLCFFYNKKSDVGFLPPFPTLDPEEKCQAYESNRESLLNHFLYEVARRNPFVFAPTLLTVAVHFEEVAKSCCEEQNKVNCLQTRAIPVTQYLKAFSSYQKHVCGALLKFGTKVVHFIYIAILSQKFPKIEFKELISLVEDVSSNYDGCCEGDVVQCIRDTSKVMNHICSKQDSISSKIKECCEKKIPERGQCIINSNKDDRPKDLSLREGKFTDSENVCQERDADPDTFFAKFTFEYSRRHPDLSIPELLRIVQIYKDLLRNCCNTENPPGCYRYAEDKFNETTEKSLKMVQQECKHFQNLGKDGLKYHYLIRLTKIAPQLSTEELVSLGEKMVTAFTTCCTLSEEFACVDNLADLVFGELCGVNENRTINPAVDHCCKTNFAFRRPCFESLKADKTYVPPPFSQDLFTFHADMCQSQNEELQRKTDRFLVNLVKLKHELTDEELQSLFTNFANVVDKCCKAESPEVCFNEESPKIGN

Experiments:
[1] = system: infertile male chimeric animals; assay: afamin substitution via intraperitoneal minipump in infertile male chimeric afamin knock-out mice: fertility and testes histology; type: in vivo, mouse
Excerpt: Chimeric mice from ES cells carrying the disrupted afamin allele were generated by microinjection of 10-15 ES cells into 3.5-day-old embryos of the C57B1/J mouse strain. Chimeric animals were mated to C57B1/J or 129/Sv partners, respectively, to establish the afamin mutant allele on a C57B1/J×129/Sv hybrid and on a 129/Sv inbred genetic background. Loss of afamin mRNA and protein was checked by Northern and Western blot analysis.
In order to confirm the role of afamin for fertility, infertile male chimeric animals were substituted with recombinantly produced murine afamin via minipump, which was implanted intraperitonially and released afamin continuously into the organism for 28 days (which corresponds to the time required for spermiogenesis in mice). Control mice received physiological saline solution instead of afamin. At weekly time intervals, plasma was obtained from substituted mice. […] Offspring were, however, exclusively wild-type not carrying the recombinant allele.

[2] = afamin plasma concentration by ELISA during afamin substitution; type: in vivo, mouse; details: infertile male chimeric mice, intraperitoneal minipump, continuous release for 28 days, plasma at weekly intervals
Excerpt: In order to analyse the afamin concentrations in the partial knock-out mice, an ELISA kit for quantifying afamin in mouse plasma was developed. For that purpose, a polyclonal antibody against mouse afamin was obtained by immunising rabbits with purified recombinant murine afamin. Recombinant expression of murine afamin was achieved by stable transfection of CHO cells with mouse afamin cDNA followed by purification from serum-free culture supernatants. The obtained polyclonal anti-mouse afamin antibody was purified by affinity chromatography on a sepharose column to which recombinant afamin was covalently bound. This affinity-purified antibody was used to coat ELISA-plates and, after conjugation with horse-radish peroxidase, also for detection using an appropriate substrate reaction. Purified recombinant afamin (quantified by amino acid compositional analysis) served as standard. With this ELISA, an afamin plasma concentration in the range of 6-10 mg/l was measured in wild-type mice which is roughly only 10% of respective plasma levels in humans (3).
In order to confirm the role of afamin for fertility, infertile male chimeric animals were substituted with recombinantly produced murine afamin via minipump, which was implanted intraperitonially and released afamin continuously into the organism for 28 days (which corresponds to the time required for spermiogenesis in mice). […]

[3] = human afamin binding alpha- and gamma-tocopherol, radioligand assay; read-out: binding-dissociation constant; cited from earlier work

Molecule	histological examination of testes, spermiogenesis ([1]; after afamin substitution and sacrifice)	fertility (mating with female wild-type mice) ([1]; intraperitoneal minipump, 28 days substitution)	plasma concentrations of afamin [2]	Kd [3] [µM]
B1	restoration of normal testes histology, spermiogenesis; also recorded: completely normalised testes tissue and spermiogenesis	restoration of normal testes histology, spermiogenesis and fertility; also recorded: resulted in several pregnancies and births	immediately rose to physiological levels and stayed constant during the infusion period	
B2				18
